PMC10178127, “Immunomodulatory Effects of the Pea Defensin Psd1 in the Caco-2/Immune Cells Co-Culture upon Candida albicans Infection” (International Journal of Molecular Sciences, 2023)

Test system: Caco-2 polarized monolayer
Format: in vitro ADME, human
Protocol: For growing cells, mimicking epithelial barriers in vitro, Caco-2 cells were seeded onto 24-well polycarbonate Millicell cell culture inserts (0.4 μm, 0.6 cm^2 surface area) (Millipore, Burlington, MA, USA), precoated with 0.2% bovine gelatin (Sigma-Aldrich), at a density of 2.5 × 10^5 cells/cm^2. The cells were grown for 21 days in a complete DMEM/F12 (1:1) medium with re-feeding every 2–3 days with a fresh complete medium. The integrity of the Caco-2 cell monolayer was checked by measuring the transepithelial electrical resistance (TEER) using a Millicell-ERS Voltohmmeter (Millipore). Only cell monolayers with TEER > 400 Ωcm^2 (after subtracting TEER in blank inserts without Caco-2 cells) were used in transport across epithelial monolayer and cytokine production experiments.
The recombinant Psd1 was labeled with fluorescein isothiocyanate isomer I (FITC) (Sigma-Aldrich). For this, 0.5 mg of Psd1 was reconstituted in 20 µL of DMSO, then added to 100 µL of the buffer for coupling (0.1 M sodium carbonate, 0.1 M sodium bicarbonate, pH 10.8) and 3.7 mg of FITC in 100 µL of DMSO. The coupling reaction was conducted for 2 h at room temperature in the dark. In order to purify FITC-Psd1, the reaction mixture was loaded onto the PD10 gel-filtration column (GE Healthcare, Chicago, IL, USA) previously equilibrated with transport buffer (Hank’s balanced salt solution, containing 1 mM MgCl2, 1 mM CaCl2, and 10 mM D(+)glucose, pH 7.4).
Transport of FITC-Psd1 across the Caco-2 epithelial barrier in vitro was performed in the transport buffer. Bidirectional “apical-to-basolateral” (A→B) and “basolateral-to-apical” (B→A) transport of FITC-Psd1 in the transport buffer across epithelial barrier was investigated. The “apical-to-basolateral” assay was initiated by adding 0.4 mL of 2 µM FITC-Psd1 to the apical (luminal) side of the monolayer and 0.7 mL of the transport buffer (pH 7.4) to the basolateral side of the monolayer. The “basolateral-to-apical” assay was performed in a similar manner, except that 0.4 mL of the transport buffer (pH 7.4) was added to the apical side and 0.7 mL of 2 µM FITC-Psd1 to the basolateral (serosal) side. All solutions were pre-warmed to 37 °C before taking into the transport experiment. Transport in vitro across Caco-2 barriers was conducted for 90 min in 4 independent inserts for each studied transport variant.
An apparent permeability coefficient (Papp) was calculated for each insert according to the following equation:Papp = (V/(A × Ci)) × ΔC/Δt,(1) where V is the volume of the acceptor chamber, A is the area of the membrane insert, Ci is the initial concentration of Psd1, and ΔC/Δt is the solute flux across the barrier. Uptake ratio:UR = Papp(A→B)/Papp(B→A),(2) and efflux ratio:ER = Papp(B→A)/Papp(A→B),(3) for Psd1 were calculated from averaged apparent permeability coefficients measured in 4 independent inserts. Monolayer integrity was checked by measuring TEER before and after the end of the experiment.

Q: How did the “efflux ratio (ER)” value (Caco-2) turn out when “Psd1: pea defensin from Pisum sativum (UNIPROT P81929), recombinant peptide overexpressed in Escherichia coli (KTCEHLADTYRGVCFTNASCDDHCKNKAHLISGTCHNWKCFCTQNC; UniProt P81929 1-46, looked up)” was run?
A: 2.29

Q: What about the “uptake ratio (UR)” value (Caco-2) of the same substance?
A: 0.44

Q: What about the “Apparent permeability A→B coefficients (Papp), range of four inserts” value (Caco-2, pH 7.4) of the same substance?
A: 2.63–3.71 × 10^−6 cm/s

Q: What about the “Papp A→B” value (Caco-2, pH 7.4) of the same substance?
A: 3.04 ± 0.24 × 10^−6 cm/s

Q: What about the “Papp B→A” value (Caco-2, pH 7.4) of the same substance?
A: 6.96 ± 0.22 × 10^−6 cm/s
